Positions count from the first letter of the chain named.

The target of test [1] is T1, WT SARS-CoV-2 spike S1 subunit (SARS-CoV-2, UniProt P0DTC2 16-685). Briefly: bio-layer interferometry (BLI, Octet), monovalent Fab affinity. (In BLI a coated tip is dipped into the sample, and binding shifts an interference pattern.)
Test [2] has as its target T1, WT SARS-CoV-2 spike S1 subunit. The test is described as follows: BLI (Octet), Fab, monovalent.
The target of test [3] is SARS-CoV spike S1 subunit (SARS-CoV, UniProt P59594 14-667). The test is described as follows: BLI (Octet), Fab, monovalent.

B1: ADI-58125 (Fab, V domains shown)
VH: EVQLVESGGGLVKPGGSLRLSCAASGFTFSSYYMNWVRQAPGKGLEWVSSISEDGYSTYYPDSLKGRFTISRDSAKNSLYLQMNSLRADDTAVYYCARDFSGHTAWAGTGFEYWGQGTLVTVSS
VL: QSVLTQPPSVSGAPGQRITISCTGSSSNIGAGYDVHWYQQLPGTAPKLLIYGSSSRNSGVPDRFSGSKSGTSASLAITGLQAEDEADYYCQSYDSSLSVLYTFGTGTKVTVLG
B1 displayed a Kd in test [1] of 0.6 nM.

B2: VYD222 Fab (Fab, V domains shown)
VH: B1 VH with S30G, Y33E, S101G, H103D, E112T
VL: QSVLTQPPSVSGAPGQRITISCTGSSSNIGAGYDVHWYQQLPGTAPKLLIYGSSSRNYGVPDRFSGSKSGTSASLAITGLQAEDEADYYCQSYDSDLGVLYTFGTGTKVTVL
B2: the Kd turned out to be 2.14 nM in test [2] and 0.478 nM in test [3].

Broadly, the Kd is the constant that tells how readily two partners part at equilibrium.

(Values after patent publication US20260078171A1 (INVIVYD, published 2026).)
